Reference: paper doi:10.1101/2023.06.12.544689 (bioRxiv, 2023)

T1: human claudin-9, biotinylated (hsCLDN-9-Biotin) (human, UniProt O95484)
T1 sequence: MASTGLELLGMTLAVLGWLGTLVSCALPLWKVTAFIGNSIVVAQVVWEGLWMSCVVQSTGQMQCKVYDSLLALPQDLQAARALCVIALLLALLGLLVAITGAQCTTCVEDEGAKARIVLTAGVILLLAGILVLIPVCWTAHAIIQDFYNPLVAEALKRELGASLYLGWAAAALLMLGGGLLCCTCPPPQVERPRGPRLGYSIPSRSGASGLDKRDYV

T2: mouse claudin-4, biotinylated (mmCLDN-4-Biotin) (mouse, UniProt O35054 1-210)
T2 sequence: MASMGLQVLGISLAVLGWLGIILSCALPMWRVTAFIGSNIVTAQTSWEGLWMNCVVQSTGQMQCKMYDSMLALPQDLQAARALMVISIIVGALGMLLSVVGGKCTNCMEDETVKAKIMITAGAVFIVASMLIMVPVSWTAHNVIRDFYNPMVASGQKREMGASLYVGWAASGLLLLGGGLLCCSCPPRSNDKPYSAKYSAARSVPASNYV

T3: human claudin-4, biotinylated (hsCLDN-4-Biotin) (human, UniProt O14493 1-209)
T3 sequence: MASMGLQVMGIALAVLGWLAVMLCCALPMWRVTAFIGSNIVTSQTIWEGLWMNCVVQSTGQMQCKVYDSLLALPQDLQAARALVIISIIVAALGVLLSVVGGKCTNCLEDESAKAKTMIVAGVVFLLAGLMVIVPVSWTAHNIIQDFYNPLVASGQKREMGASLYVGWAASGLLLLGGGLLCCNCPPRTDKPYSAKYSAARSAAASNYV

B1: COP-3 (antibody, V domains shown)
VH: EVQLVESGGGLVQPGGSLRLSCAASGFNFYSSSIHWVRQAPGKGLEWVAYISSYSGYTYYADSVKGRFTISADTSKNTAYLQMNSLRAEDTAVYYCARGYGYFDYNFSVGYALDYWGQGTLVTVSS
VL: DIQMTQSPSSLSASVGDRVTITCRASQSVSSAVAWYQQKPGKAPKLLIYSASSLYSGVPSRFSGSRSGTDFTLTISSLQPEDFATYYCQQSHPWYYPITFGQGTKVEIK
B2: cCpE-His10 (domain or fragment)
chain: STDIEKEILDLAAATERLNLTDALNSNPAGNLYDWRSSNSYPWTQKLNLHLTITATGQKYRILASKIVDFNIYSNNFNNLVKLEQSLGDGVKDHYVDISLDAGQYVLVMKANSSYSGNYPYSILFQKF

Experiments:
[1] = target: C-terminal domain of Clostridium perfringens enterotoxin (cCpE), tagless (Clostridium perfringens, UniProt P01558)
[2] = target: T1, human claudin-9, biotinylated …; assay: BLI
[3] = target: T2, mouse claudin-4, biotinylated …; assay: BLI
[4] = target: T3, human claudin-4, biotinylated …; assay: BLI

Binder | binding result [1] | Kd [2] [nM] | Kd [3] [nM] | Kd [4] [nM]
B1 | binds |  |  | 
B2 |  | < 12 | < 12 | < 12
